Measured values published in paper PMC12187637.

What was measured:
[1] = molecular target: GFP-tagged ADP-ribosylation-deficient NuMA, NuMA^PARmut construct (UniProt Q14980); assay: co-IP; GFP-trap magnetic beads on the chromatin fraction of cells co-transfected with myc-TDP1 and treated with 10 uM H2O2 for 10 min on ice in the dark; immunoblot; three biological replicates
[2] = molecular target: GFP-tagged ADP-ribosylation-deficient NuMA, NuMA^PARmut construct (UniProt Q14980); assay: co-IP; GFP-trap magnetic beads on whole-cell extracts (NP-40 lysis buffer with BaseMuncher endonuclease and ADP-HPD) of cells transfected with GFP-NuMA and co-transfected with myc-TDP1, untreated or treated with 10 uM H2O2 for 10 min on ice in the dark; 2 h at 4°C; immunoblot; three biological replicates

UniProt Q14980, sequence (Q14980 other isoform, or with tags, fused parts or gaps, change not shown): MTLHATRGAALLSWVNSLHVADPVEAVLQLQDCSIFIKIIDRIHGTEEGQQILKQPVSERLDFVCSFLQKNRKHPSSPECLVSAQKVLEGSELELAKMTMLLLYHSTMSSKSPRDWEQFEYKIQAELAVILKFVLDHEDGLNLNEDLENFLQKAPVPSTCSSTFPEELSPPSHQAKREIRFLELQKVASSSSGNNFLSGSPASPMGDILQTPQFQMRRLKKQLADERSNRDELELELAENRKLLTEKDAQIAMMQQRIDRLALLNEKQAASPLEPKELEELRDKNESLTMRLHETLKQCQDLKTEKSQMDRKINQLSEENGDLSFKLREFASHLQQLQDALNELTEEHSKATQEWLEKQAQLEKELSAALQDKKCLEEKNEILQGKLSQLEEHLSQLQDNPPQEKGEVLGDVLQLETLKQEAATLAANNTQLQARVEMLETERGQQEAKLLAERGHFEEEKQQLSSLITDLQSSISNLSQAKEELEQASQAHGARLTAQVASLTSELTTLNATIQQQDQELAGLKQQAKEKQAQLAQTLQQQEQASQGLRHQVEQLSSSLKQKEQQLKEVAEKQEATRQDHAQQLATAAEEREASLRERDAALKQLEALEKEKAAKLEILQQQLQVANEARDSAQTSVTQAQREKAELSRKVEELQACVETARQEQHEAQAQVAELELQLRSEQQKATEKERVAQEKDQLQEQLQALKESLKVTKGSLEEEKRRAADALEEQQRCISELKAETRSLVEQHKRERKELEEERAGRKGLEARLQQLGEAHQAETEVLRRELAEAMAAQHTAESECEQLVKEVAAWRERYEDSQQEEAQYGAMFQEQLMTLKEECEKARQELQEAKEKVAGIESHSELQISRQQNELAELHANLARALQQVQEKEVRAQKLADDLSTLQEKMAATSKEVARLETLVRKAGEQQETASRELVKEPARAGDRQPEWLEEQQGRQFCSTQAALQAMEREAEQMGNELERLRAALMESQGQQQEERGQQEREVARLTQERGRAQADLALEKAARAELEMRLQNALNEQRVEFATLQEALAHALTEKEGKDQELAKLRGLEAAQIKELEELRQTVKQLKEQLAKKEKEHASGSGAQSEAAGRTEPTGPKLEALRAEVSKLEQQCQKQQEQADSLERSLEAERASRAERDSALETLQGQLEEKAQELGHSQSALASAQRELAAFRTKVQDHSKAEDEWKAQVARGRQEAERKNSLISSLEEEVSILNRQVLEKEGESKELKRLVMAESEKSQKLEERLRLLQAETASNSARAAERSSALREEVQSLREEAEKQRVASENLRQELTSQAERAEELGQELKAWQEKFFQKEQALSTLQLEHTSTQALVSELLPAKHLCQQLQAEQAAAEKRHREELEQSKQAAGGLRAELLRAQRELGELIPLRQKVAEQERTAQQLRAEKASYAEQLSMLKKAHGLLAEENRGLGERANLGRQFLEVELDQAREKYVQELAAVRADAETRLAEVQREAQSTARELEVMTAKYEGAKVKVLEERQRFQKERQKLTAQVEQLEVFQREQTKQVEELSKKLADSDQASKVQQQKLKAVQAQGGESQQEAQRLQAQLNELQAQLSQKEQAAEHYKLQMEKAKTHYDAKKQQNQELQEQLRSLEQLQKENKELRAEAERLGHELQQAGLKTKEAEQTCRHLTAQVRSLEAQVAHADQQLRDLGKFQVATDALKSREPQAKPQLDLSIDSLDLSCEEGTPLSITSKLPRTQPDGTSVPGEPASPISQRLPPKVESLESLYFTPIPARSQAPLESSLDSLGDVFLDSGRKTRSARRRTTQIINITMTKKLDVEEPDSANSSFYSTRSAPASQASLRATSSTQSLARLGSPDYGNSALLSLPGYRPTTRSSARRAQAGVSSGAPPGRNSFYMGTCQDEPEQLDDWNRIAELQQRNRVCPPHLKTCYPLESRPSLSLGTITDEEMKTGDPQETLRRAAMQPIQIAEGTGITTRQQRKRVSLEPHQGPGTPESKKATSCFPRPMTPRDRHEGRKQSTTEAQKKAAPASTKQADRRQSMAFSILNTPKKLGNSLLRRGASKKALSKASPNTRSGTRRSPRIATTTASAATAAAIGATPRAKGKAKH

percent lower interaction than with NuMA^WT (chromatin fraction, H2O2-treated cells) [1]: 50% | percent decrease in interaction relative to NuMA^WT (H2O2-treated cells) [2]: 38 to 45% | percent decrease in interaction relative to NuMA^WT (untreated cells) [2]: 38 to 45%
Substance: myc-TDP1 (tyrosyl DNA phosphodiesterase 1) (from UniProt Q9NUW8 1-608) (enzyme)
